Measured values: doi:10.1101/2021.06.29.450403 (bioRxiv, 2021)
One block for each binder: values may come before it.

What was measured:
Chicken calmodulin (CaM) [1] = target: T1, Chicken calmodulin (CaM) (chicken, UniProt P62149 1-149); assay: NMR titration
[2] = target: recombinant rAQP4ct protein (complete cytosolic C-terminal domain of human AQP4, residues 254-323) (human, UniProt P55087-1 254-323); assay: steady-state intrinsic Trp fluorescence
Chicken calmodulin (CaM) [3] = target: T1, Chicken calmodulin (CaM); assay: steady-state intrinsic Trp fluorescence

Binder: PTARRWGKSGPLSTR [recombinant rAQP4nt6-19 truncated peptide]
- binding result (Chicken calmodulin (CaM) [1]): binds

B1: CaM bound AQP4nt-W30A peptide (complex)
chain 1: […]
chain 2: PTARRWGKSGPLSTRENIMVAFKGVAT
- binding result [2]: binds

The remaining lines, values ahead:

- Kd (Chicken calmodulin (CaM) [1]): 3.4 µM
- stoichiometry N (Chicken calmodulin (CaM) [1]): 1
Binder: Ac-TARRWGKSGPLSTRENIMVAFKGVWT-NH2 [human AQP4nt synthetic peptide (residues 6-31, two Cys modified to Ser)]

- binding result (Chicken calmodulin (CaM) [3]): binds
Binder: PTARRWGKSGPLSTRENIMVAFKGVAT [recombinant rAQP4ntW30A peptide]

- apparent Kd, C-lobe of CaM (first binding event) (Chicken calmodulin (CaM) [1]): 3.6 µM
- apparent Kd, N-lobe of CaM (second binding event) (Chicken calmodulin (CaM) [1]): 114 µM
- stoichiometry N (Chicken calmodulin (CaM) [1]): 2
Binder: Ac-VEFKRRFKEAFSKAAQQTKGSYMEV-NH2 [human AQP4ct synthetic peptide (residues 256-280)]
